Earlier results on 1 substance are cited in article PMC4475429.

pKd: −log10 of the molar value.

By pKd is commonly meant the Kd on a negative log10 scale, so that one unit is a factor of ten.

For this series, the target named is PKA RIα (Homo sapiens) (UniProt P10644).
Chain of PKA RIα (Homo sapiens) (P10644 whole entry): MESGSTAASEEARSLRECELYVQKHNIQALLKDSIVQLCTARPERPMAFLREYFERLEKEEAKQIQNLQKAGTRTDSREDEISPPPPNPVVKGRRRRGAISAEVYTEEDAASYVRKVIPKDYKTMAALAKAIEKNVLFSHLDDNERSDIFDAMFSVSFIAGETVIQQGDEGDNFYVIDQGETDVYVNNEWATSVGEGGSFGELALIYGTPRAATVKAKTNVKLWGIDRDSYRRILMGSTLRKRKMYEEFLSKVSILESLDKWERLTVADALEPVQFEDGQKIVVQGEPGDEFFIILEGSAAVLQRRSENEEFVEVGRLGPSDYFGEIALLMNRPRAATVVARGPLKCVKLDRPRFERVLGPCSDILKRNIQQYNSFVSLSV

Chain of Ht31 (Q12802 whole entry): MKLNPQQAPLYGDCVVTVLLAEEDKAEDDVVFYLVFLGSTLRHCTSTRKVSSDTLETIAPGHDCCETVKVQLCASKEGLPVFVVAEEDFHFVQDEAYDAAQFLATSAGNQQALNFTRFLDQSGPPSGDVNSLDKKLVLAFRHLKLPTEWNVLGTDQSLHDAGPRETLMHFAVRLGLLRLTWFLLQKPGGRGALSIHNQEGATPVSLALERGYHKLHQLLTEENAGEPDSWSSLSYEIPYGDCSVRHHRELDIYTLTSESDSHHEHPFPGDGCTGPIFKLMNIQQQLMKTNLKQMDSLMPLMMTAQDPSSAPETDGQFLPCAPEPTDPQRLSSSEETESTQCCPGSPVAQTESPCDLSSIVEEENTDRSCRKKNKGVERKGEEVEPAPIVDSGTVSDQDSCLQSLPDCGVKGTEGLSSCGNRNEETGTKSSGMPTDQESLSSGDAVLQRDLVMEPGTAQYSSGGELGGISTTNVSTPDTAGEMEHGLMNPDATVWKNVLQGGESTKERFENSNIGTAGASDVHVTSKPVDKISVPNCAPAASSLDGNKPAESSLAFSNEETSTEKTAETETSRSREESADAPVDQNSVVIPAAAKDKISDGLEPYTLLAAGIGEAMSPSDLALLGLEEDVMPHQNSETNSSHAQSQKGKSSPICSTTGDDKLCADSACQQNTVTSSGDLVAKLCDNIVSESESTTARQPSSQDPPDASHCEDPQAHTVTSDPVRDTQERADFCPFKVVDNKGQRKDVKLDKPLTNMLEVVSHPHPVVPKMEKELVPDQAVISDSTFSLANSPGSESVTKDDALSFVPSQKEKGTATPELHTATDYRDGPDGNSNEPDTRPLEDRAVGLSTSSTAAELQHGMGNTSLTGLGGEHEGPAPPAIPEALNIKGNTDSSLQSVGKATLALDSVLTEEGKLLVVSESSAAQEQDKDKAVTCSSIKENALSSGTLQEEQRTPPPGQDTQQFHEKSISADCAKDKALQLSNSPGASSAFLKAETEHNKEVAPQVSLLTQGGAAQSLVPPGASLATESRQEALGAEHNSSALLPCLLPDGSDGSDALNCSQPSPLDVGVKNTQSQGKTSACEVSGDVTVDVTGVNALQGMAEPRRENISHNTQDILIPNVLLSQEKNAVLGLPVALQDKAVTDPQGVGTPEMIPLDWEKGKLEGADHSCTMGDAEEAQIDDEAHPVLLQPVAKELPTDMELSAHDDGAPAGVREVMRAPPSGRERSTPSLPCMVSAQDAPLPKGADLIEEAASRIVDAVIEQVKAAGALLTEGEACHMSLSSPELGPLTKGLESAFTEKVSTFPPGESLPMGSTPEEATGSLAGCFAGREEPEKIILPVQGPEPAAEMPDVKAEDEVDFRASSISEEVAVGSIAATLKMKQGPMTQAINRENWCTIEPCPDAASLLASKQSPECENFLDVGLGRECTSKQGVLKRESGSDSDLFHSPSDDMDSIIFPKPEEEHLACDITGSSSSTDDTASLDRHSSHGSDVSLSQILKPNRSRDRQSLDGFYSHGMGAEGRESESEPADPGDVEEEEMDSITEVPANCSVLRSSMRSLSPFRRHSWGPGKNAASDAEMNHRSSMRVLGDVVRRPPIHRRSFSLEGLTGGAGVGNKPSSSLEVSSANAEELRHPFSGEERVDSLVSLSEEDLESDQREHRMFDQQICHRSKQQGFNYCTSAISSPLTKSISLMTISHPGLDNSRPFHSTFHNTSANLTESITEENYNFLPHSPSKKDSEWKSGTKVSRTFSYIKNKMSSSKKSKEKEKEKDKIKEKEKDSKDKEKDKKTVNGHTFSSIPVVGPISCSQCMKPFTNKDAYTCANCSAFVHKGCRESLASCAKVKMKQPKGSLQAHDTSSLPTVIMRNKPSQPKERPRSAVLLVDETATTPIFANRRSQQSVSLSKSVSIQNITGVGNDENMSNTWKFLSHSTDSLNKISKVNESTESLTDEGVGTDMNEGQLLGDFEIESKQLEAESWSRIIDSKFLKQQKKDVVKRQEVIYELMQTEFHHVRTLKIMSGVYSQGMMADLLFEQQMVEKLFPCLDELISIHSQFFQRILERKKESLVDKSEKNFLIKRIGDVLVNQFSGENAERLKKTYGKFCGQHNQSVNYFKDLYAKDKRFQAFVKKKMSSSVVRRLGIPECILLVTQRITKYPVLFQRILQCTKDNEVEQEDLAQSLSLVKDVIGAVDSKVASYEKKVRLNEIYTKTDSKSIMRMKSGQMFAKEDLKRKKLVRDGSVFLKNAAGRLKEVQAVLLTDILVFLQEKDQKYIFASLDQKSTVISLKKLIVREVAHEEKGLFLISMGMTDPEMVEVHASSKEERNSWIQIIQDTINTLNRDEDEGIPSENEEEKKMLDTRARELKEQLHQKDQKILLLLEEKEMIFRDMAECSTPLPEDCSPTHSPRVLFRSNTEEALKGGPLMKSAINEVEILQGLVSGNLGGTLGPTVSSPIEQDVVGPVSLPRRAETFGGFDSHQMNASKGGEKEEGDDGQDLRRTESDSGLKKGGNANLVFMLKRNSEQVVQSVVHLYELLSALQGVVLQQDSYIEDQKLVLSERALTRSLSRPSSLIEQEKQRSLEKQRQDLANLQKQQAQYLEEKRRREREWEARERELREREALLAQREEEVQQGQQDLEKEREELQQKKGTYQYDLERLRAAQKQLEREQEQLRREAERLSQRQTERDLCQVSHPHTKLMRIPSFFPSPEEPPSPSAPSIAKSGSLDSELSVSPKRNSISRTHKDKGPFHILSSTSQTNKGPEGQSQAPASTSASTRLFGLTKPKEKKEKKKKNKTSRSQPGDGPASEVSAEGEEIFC

Turning to Ht31 (from UniProt Q12802), the pKd was 5.68.
